Columns and labels:
c-Src SH2 = assay: SH2 binding enrichment of the phosphorylated peptide, bacterial display (enrichment ratio); higher = better substrate or ligand; peptides without Tyr show the background
Grb2 SH2 = Grb2 SH2 (UniProt P62993); assay: as above
SHP2-C SH2 = assay: as above
MERTK = MERTK (UniProt Q12866); assay: phosphorylation enrichment, bacterial display (enrichment ratio); higher = better substrate or ligand; peptides without Tyr show the background
Fyn = Fyn (UniProt P06241); assay: as above
Chain of Fyn (P06241 whole entry, looked up): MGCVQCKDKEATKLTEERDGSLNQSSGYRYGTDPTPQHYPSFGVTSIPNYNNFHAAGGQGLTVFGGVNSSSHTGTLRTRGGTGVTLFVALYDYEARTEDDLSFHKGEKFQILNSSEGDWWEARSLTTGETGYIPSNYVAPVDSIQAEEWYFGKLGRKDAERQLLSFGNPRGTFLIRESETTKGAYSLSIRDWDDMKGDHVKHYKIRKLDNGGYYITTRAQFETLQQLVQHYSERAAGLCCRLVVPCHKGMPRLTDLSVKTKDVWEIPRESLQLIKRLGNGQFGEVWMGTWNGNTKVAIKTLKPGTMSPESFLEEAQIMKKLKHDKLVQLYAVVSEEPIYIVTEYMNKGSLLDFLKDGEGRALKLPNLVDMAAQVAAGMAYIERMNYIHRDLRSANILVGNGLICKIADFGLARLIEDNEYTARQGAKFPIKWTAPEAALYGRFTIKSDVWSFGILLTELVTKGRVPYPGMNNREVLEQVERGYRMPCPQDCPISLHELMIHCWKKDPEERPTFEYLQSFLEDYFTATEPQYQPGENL

EPHB2 = EPHB2 (UniProt P29323); assay: as above
Jak2 = Jak2 (UniProt O60674); assay: as above
FGFR1 = FGFR1 (UniProt P11362); assay: as above
Chain of FGFR1 (P11362 whole entry, looked up): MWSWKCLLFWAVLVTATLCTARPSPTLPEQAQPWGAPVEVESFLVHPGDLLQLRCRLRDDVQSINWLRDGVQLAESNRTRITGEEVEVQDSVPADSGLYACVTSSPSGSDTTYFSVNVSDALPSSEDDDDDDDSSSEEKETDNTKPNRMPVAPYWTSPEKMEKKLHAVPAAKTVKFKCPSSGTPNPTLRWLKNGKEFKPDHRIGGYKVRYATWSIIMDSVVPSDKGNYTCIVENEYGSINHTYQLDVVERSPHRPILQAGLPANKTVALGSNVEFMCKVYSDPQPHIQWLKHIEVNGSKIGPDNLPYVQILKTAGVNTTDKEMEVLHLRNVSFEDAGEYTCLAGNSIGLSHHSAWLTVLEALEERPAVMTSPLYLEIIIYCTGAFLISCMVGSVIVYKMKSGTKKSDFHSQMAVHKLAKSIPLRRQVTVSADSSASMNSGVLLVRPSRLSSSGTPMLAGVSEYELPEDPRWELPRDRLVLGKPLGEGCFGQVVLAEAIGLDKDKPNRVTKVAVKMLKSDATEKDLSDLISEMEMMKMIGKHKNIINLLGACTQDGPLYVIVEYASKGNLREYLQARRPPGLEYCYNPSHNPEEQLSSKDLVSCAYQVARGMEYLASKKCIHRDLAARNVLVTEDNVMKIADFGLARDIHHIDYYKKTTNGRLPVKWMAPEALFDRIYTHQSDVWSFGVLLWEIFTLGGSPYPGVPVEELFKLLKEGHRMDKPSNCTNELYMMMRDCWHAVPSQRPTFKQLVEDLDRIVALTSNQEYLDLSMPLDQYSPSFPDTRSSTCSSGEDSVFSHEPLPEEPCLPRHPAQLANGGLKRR

EPHB1 = EPHB1 (UniProt P54762); assay: as above
Chain of EPHB1 (P54762 whole entry, looked up): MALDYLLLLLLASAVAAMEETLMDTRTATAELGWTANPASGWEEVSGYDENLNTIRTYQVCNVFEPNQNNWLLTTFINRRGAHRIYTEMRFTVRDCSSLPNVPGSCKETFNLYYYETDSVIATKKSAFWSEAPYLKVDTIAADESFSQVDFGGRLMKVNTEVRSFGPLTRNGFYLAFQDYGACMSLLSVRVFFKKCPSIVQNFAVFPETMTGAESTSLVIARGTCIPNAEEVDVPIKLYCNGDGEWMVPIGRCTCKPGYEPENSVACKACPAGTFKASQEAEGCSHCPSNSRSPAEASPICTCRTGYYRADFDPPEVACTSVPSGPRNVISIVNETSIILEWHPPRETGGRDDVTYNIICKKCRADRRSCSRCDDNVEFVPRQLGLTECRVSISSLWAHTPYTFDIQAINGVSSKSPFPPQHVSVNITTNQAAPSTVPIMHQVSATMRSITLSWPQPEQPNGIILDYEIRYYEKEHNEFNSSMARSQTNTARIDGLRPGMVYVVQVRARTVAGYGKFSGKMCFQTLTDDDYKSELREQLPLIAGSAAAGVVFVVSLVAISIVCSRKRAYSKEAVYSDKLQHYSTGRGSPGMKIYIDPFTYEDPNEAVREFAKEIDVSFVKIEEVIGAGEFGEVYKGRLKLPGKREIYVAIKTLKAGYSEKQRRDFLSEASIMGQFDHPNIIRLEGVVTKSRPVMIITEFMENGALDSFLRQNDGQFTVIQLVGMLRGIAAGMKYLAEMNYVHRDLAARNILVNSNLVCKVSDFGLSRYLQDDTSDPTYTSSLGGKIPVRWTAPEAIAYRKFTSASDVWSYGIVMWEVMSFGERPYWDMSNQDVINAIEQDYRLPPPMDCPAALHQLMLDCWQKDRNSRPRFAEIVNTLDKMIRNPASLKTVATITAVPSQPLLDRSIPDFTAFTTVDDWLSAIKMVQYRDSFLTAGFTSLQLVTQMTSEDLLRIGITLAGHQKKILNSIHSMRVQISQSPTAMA

c-Src = assay: as above
Fes = Fes (UniProt P07332); assay: as above
Chain of Fes (P07332 whole entry, looked up): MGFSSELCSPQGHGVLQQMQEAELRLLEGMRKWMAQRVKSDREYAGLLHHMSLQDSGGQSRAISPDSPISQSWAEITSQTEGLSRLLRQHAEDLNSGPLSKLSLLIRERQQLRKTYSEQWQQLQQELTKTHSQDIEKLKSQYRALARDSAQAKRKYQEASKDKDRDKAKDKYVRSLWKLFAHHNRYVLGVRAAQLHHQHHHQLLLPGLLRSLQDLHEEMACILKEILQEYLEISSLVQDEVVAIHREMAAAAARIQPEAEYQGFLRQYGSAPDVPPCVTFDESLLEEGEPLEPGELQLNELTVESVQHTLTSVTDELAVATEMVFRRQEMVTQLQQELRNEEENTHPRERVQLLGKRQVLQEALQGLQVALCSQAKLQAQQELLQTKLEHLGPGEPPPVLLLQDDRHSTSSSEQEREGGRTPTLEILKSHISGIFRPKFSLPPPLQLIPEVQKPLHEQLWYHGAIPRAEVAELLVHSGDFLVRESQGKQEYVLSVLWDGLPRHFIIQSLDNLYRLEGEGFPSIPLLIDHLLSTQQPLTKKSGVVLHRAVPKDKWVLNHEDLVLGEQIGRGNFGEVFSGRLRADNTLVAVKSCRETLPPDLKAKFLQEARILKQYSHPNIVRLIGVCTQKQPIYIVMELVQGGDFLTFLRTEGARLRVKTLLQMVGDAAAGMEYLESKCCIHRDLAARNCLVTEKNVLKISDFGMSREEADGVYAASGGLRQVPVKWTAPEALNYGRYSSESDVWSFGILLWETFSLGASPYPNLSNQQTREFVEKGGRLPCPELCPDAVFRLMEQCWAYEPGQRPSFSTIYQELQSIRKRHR

c-Abl (mouse) = assay: as above
FGFR3 = FGFR3 (UniProt P22607); assay: as above
Chain of FGFR3 (P22607 whole entry, looked up): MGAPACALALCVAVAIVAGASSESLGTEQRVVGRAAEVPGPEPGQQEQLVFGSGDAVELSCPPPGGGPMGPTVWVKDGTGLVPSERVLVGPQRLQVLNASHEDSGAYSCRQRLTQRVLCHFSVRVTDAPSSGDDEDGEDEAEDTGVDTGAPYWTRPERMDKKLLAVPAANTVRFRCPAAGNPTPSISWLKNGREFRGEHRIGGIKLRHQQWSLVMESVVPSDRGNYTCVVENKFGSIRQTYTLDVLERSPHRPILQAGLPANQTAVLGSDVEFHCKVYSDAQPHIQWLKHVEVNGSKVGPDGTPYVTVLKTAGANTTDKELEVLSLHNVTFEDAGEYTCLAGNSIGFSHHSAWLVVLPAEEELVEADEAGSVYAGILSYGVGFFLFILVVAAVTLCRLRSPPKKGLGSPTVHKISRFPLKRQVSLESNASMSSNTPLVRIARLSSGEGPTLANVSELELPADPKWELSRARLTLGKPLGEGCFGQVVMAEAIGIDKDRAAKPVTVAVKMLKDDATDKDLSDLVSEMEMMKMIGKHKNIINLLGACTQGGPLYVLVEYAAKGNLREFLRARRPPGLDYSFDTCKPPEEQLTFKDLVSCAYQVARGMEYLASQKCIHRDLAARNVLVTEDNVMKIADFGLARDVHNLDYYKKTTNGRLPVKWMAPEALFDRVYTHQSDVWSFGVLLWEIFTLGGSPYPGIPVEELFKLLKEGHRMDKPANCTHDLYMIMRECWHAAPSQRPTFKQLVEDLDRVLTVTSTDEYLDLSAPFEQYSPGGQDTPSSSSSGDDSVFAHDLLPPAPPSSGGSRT

Hck = Hck (UniProt P08631); assay: as above
Chain of Hck (P08631 whole entry, looked up): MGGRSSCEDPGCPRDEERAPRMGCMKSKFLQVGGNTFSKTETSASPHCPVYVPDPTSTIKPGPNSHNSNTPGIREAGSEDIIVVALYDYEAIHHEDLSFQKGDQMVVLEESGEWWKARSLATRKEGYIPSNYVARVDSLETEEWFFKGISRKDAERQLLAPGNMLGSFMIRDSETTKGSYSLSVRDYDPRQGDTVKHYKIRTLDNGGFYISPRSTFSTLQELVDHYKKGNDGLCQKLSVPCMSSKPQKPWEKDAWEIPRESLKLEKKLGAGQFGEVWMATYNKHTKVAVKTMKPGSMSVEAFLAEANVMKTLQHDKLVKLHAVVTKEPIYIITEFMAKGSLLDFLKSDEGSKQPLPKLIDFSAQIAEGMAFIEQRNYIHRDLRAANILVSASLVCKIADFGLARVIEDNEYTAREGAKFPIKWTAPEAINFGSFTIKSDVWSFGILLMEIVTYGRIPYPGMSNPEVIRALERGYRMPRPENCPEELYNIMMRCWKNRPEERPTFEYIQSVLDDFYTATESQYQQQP

Fer (mouse) = assay: as above
AncSZ = assay: as above
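Throughout, for SH2 binding enrichment of the phosphorylated peptide, bacterial display: peptide library displayed on the E. coli surface as eCPX fusions, selected cells deep-sequenced, score is each peptide's frequency after selection divided by its frequency in the input.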
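Throughout, for phosphorylation enrichment, bacterial display: 11-residue human phosphosite peptides and single-mutation variants displayed on the E. coli surface, counted by deep sequencing, each peptide's frequency after selection divided by its frequency in the unselected input library; frequency after pTyr selection over input frequency; kinase dosed for 20-30% of maximal phosphorylation in three min.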

| Sequence | SH2 binding enrichment (c-Src SH2) | SH2 binding enrichment (Grb2 SH2) | SH2 binding enrichment (SHP2-C SH2) | phosphorylation enrichment (MERTK) | phosphorylation enrichment (Fyn) | phosphorylation enrichment (EPHB2) | phosphorylation enrichment (Jak2) | phosphorylation enrichment (FGFR1) | phosphorylation enrichment (EPHB1) | phosphorylation enrichment (c-Src) | phosphorylation enrichment (Fes) | phosphorylation enrichment (c-Abl (mouse)) | phosphorylation enrichment (FGFR3) | phosphorylation enrichment (Hck) | phosphorylation enrichment (Fer (mouse)) | phosphorylation enrichment (AncSZ) |
| --- | --- | --- | --- | --- | --- | --- | --- | --- | --- | --- | --- | --- | --- | --- | --- | --- |
| FASALYRQRRS [FGF11_Y162_YF] | 0.516 | 0.79 | 0.576 | 0.565 | 0.577 | 0.622 | 0.468 | 0.668 | 0.513 | 0.577 | 0.592 | 0.563 | 0.531 | 0.546 | 0.991 | 0.689 |
| RLLRGYNQSAY [HLA-C_Y137_D138N] | 0.825 | 1.11 | 1.09 | 0.275 | 0.41 | 0.454 | 0.307 | 0.386 | 0.538 | 0.267 | 0.412 | 0.36 | 0.499 | 0.507 | 0.321 | 0.44 |
| DDKEFYSVHNK [MET_Y1235_Y1230D_YF] | 0.486 | 0.831 | 0.621 | 0.422 | 0.413 | 0.527 | 0.854 | 0.525 | 0.488 | 0.531 | 0.99 | 0.828 | 0.571 | 0.453 | 0.47 | 0.882 |
| EWLRGYLENGK [HLA-C_Y195_R194G] | 0.43 | 0.871 | 1.06 | 0.394 | 0.464 | 0.683 | 0.777 | 0.481 | 0.51 | 0.481 | 0.921 | 0.97 | 0.601 | 0.483 | 0.436 | 0.844 |
| MHDSNSVSKGS [PDGFRA_Y849_Y849S] | 0.465 | 0.787 | 0.595 | 0.448 | 0.381 | 0.374 | 0.687 | 0.402 | 0.282 | 0.428 | 0.523 | 0.424 | 0.329 | 0.432 | 0.392 | 0.445 |
| KYVVVYFREID [IL17RB_Y447] | 1.37 | 1.62 | 2.88 | 0.471 | 0.486 | 0.545 | 1.51 | 0.513 | 0.578 | 0.626 | 1.66 | 1.01 | 0.867 | 0.499 | 0.591 | 1.61 |
| IEENGYNTYAS [FGF10_Y161] | 1.12 | 0.759 | 0.64 | 0.422 | 0.606 | 0.593 | 0.802 | 0.562 | 0.534 | 0.6 | 1.12 | 0.64 | 0.674 | 0.645 | 0.49 | 1.02 |
| FDNPVYQKTTE [LDLR_Y828] | 0.578 | 0.993 | 1.09 | 0.453 | 0.759 | 0.497 | 0.549 | 0.5 | 0.605 | 0.531 | 0.864 | 0.438 | 0.498 | 0.933 | 0.424 | 0.737 |
| KGPGEYVNIEF [IRS1_Y896_S892G] | 5.64 | 4.8 | 1.22 | 0.442 | 0.58 | 0.639 | 0.691 | 1.43 | 0.708 | 0.484 | 0.79 | 0.493 | 1.14 | 0.498 | 0.475 | 0.958 |
| VEDPEYAVTQP [STOML2_Y124_L129P] | 0.504 | 0.877 | 0.666 | 0.473 | 0.543 | 0.602 | 1.32 | 0.646 | 0.567 | 0.58 | 1.33 | 1 | 0.848 | 0.608 | 0.664 | 1.54 |
| LTVVIYVLIGR [EPHA3_Y561] | 0.918 | 1.64 | 1.36 | 0.697 | 0.567 | 1.77 | 0.844 | 0.691 | 1.05 | 0.643 | 2.13 | 1.9 | 1.26 | 0.839 | 1.83 | 1.39 |
| HPFHVYSQPGM [BAG3_Y114_P115S] | 18.1 | 1.39 | 0.806 | 0.804 | 1.24 | 0.945 | 0.984 | 0.753 | 0.649 | 0.937 | 1.39 | 0.847 | 0.908 | 1.74 | 0.719 | 1.78 |
| TFGNLYGSRKQ [YIPF7_Y59_A54T_YF] | 0.348 | 0.851 | 0.512 | 0.641 | 0.911 | 0.398 | 0.507 | 0.514 | 0.366 | 1.81 | 0.788 | 0.585 | 0.421 | 3.44 | 0.457 | 0.629 |
| VECQVYAEDPF [PCCA_Y401_R399Q_YF] | 0.498 | 0.764 | 0.501 | 0.408 | 0.52 | 0.548 | 0.99 | 0.446 | 0.6 | 0.602 | 1.24 | 0.748 | 1.16 | 0.587 | 0.663 | 1.22 |
| PEVCDYGLGGG [GSTO1_Y239_A236V] | 0.562 | 1.05 | 1.16 | 0.837 | 0.965 | 0.812 | 1.03 | 0.689 | 0.575 | 0.611 | 1.07 | 0.726 | 0.803 | 0.765 | 0.807 | 1.6 |
| DSRRDYVSQFE [APOA1_Y53_G50R] | 0.531 | 0.803 | 0.524 | 0.464 | 0.409 | 0.447 | 0.645 | 0.542 | 0.456 | 0.43 | 0.709 | 0.567 | 0.503 | 0.478 | 0.387 | 0.762 |
| EVTLTYATGTK [NFKB1_Y485] | 0.418 | 0.701 | 0.528 | 0.371 | 0.496 | 0.526 | 0.75 | 0.404 | 0.526 | 0.409 | 1.11 | 0.774 | 0.643 | 0.514 | 0.425 | 0.805 |
| IVEELYAIPPD [PEAK1_Y797_S792I] | 0.564 | 0.88 | 0.68 | 8.66 | 3.48 | 13.3 | 1.27 | 6.62 | 4.29 | 3.23 | 1.26 | 10 | 6.02 | 4.27 | 6.14 | 3.84 |
| FEPWVYSLSYE [PRKDC_Y647_F649L] | 0.674 | 0.812 | 0.568 | 1.6 | 7.16 | 0.767 | 1.33 | 0.602 | 0.749 | 6.59 | 1.49 | 0.707 | 0.893 | 4.72 | 1.77 | 1.6 |
| YFCRWYRNRKS [EREG_Y144] | 0.571 | 0.716 | 0.623 | 0.889 | 0.618 | 0.572 | 0.683 | 0.61 | 0.621 | 0.753 | 0.635 | 0.714 | 0.515 | 0.741 | 0.478 | 0.864 |

Continued, in another order:

| SH2 binding enrichment (c-Src SH2) | SH2 binding enrichment (Grb2 SH2) | SH2 binding enrichment (SHP2-C SH2) | Sequence | phosphorylation enrichment (MERTK) | phosphorylation enrichment (Fyn) | phosphorylation enrichment (EPHB2) | phosphorylation enrichment (Jak2) | phosphorylation enrichment (FGFR1) | phosphorylation enrichment (EPHB1) | phosphorylation enrichment (c-Src) | phosphorylation enrichment (Fes) | phosphorylation enrichment (c-Abl (mouse)) | phosphorylation enrichment (FGFR3) | phosphorylation enrichment (Hck) | phosphorylation enrichment (Fer (mouse)) | phosphorylation enrichment (AncSZ) |
| --- | --- | --- | --- | --- | --- | --- | --- | --- | --- | --- | --- | --- | --- | --- | --- | --- |
| 0.397 | 0.829 | 0.753 | DGFIDYAEFAK [MCFD2_Y138_YF] | 0.468 | 0.674 | 0.718 | 1.16 | 0.522 | 0.793 | 0.675 | 1.23 | 0.728 | 0.647 | 0.48 | 0.456 | 1.13 |
| 1.35 | 0.541 | 1.06 | PVQAAYQQVVA [HBB_Y131_K133Q] | 0.415 | 0.6 | 0.822 | 0.736 | 0.673 | 0.566 | 0.576 | 0.754 | 0.677 | 0.739 | 0.659 | 0.484 | 0.554 |
| 0.529 | 0.884 | 0.73 | KMGNIYRTEYG [MRPL3_Y265] | 0.539 | 0.475 | 0.373 | 0.577 | 0.413 | 0.488 | 0.536 | 0.701 | 0.496 | 0.526 | 0.477 | 0.334 | 0.621 |
| 14.5 | 1.08 | 0.794 | AQPHTYEEPGR [EPHA8_Y616_E612Q] | 0.394 | 0.481 | 0.577 | 0.83 | 0.459 | 0.519 | 0.452 | 0.729 | 0.465 | 0.46 | 0.46 | 0.458 | 0.74 |
| 0.778 | 0.899 | 0.928 | VMLENYSNLLS [ZFP69_Y109_V113L] | 0.388 | 0.396 | 0.864 | 0.699 | 0.559 | 1.97 | 0.428 | 0.832 | 0.595 | 0.586 | 0.422 | 0.372 | 0.66 |
| 0.563 | 0.844 | 0.64 | GRSTFYWPRPR [GAGE12J_Y10_YF] | 0.538 | 0.474 | 0.472 | 0.644 | 0.48 | 0.446 | 0.501 | 0.602 | 0.573 | 0.47 | 0.713 | 0.463 | 0.831 |
| 0.494 | 1.14 | 0.639 | LTEEKYELKEG [TREM1_Y29] | 0.705 | 0.698 | 0.875 | 1.65 | 0.711 | 0.977 | 0.52 | 1.41 | 0.785 | 0.979 | 0.782 | 0.593 | 2.36 |
| 0.491 | 0.877 | 0.695 | HLWRIYFDITD [MMP27_Y307_YF] | 0.366 | 0.532 | 0.771 | 1.52 | 0.973 | 1.15 | 0.462 | 1.81 | 1.27 | 1.19 | 0.739 | 0.531 | 1.39 |
| 0.505 | 0.641 | 0.785 | FSMGCYEISLG [HMGCL_Y198_YF] | 0.866 | 0.993 | 1.01 | 1.6 | 0.652 | 1.03 | 1.64 | 1.47 | 0.965 | 1.05 | 0.836 | 1.68 | 1.93 |
| 0.477 | 0.685 | 0.54 | RRETPYGGGGG [FUS_Y526_R524T] | 0.721 | 0.718 | 0.62 | 0.551 | 0.957 | 0.568 | 0.628 | 0.68 | 0.487 | 1.07 | 0.604 | 0.438 | 0.769 |
| 0.622 | 0.778 | 0.874 | MSGDVYSTDYY [NTRK2_Y702_R699G] | 6.54 | 4.31 | 1.99 | 1.05 | 3.16 | 1.58 | 4.64 | 1.16 | 0.784 | 2.29 | 2.39 | 0.863 | 1.99 |
| 0.386 | 0.897 | 0.68 | NTSKMYIPHTD [EXPH5_Y782_D777N] | 0.462 | 0.45 | 0.423 | 0.562 | 0.415 | 0.35 | 0.474 | 0.609 | 0.532 | 0.523 | 0.462 | 0.469 | 0.663 |
| 0.412 | 0.756 | 0.676 | ALIKAYVKAVA [SMN1_Y43_D44V] | 0.481 | 0.462 | 0.534 | 1.12 | 0.623 | 0.65 | 0.557 | 0.995 | 0.68 | 0.639 | 0.464 | 0.445 | 0.966 |
